Laboratory results taken from patent WO2019194217A1.

Molecular target: active IL-18 protein (human IL-18, positions 37 to 193), expressed and purified in E. coli (human) (UniProt Q14116)
Test: capillary western immunoassay (Wes), primary antibody at 1:25 dilution (16 μg/mL)

Chain of UniProt Q14116 (Q14116 37-193 limits assumed): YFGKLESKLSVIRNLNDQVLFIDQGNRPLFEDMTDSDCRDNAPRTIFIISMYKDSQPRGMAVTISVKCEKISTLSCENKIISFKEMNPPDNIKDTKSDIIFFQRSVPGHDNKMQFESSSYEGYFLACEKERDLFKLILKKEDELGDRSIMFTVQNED

Question: For “commercially available anti-IL-18 antibody D043-3: clone 25-2G”, which concentration of IL-18 protein detectable is on record?
Answer: 100 ng/mL
